{
  "source": "paper PMC11352701",
  "binders": {"B1": {"name": "A14 control RNA (ssRNA)", "RNA": "AAAAAAAAAAAAAA"}},
  "molecular_target": "dFMRP (dFmr1-PD) (UniProt Q9NFU0 1-684)",
  "sequence (Q9NFU0 whole entry)": "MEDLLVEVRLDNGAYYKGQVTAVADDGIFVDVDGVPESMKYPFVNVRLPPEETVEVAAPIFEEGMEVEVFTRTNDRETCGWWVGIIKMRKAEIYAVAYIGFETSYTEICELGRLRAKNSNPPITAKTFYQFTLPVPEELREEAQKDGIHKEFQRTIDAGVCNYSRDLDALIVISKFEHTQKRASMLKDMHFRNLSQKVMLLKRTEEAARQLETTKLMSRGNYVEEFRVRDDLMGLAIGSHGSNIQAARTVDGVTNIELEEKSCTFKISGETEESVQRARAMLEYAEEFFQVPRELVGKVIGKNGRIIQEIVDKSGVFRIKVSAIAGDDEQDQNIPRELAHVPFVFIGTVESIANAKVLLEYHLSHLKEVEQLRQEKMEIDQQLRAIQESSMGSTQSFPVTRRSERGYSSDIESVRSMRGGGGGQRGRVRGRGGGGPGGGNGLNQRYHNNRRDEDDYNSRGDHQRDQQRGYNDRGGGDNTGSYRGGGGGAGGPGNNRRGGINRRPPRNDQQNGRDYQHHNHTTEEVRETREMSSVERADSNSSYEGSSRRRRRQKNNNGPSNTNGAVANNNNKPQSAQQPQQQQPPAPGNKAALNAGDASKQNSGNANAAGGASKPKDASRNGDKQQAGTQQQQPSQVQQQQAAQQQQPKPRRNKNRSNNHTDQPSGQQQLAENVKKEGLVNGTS",
  "experiment": "EMSA",
  "data": [
    {"binder": "B1", "values": [
      {"measurement": "binding result", "result": "no binding"}
    ]}
  ]
}
